Measurements reported in PMC11103110.

Key:
[1] = biological target: Lotus japonicus phytoglobin LjGlb3-1, recombinant (Lotus japonicus) (UniProt P0DO64); experiment: SDS-PAGE under non-reducing conditions with Coomassie staining and immunoblot; recombinant protein (20 μM in the methods, 10 μM in the legend) untreated, with 500 μM DTT or with 200–500 μM H2O2, 1 h, 50 mM KPi pH 7.4; 15% SDS-PAGE; DTT made the dimer almost totally disappear, H2O2 caused partial dimerization
[2] = biological target: Lotus japonicus phytoglobin LjGlb3-1, recombinant (Lotus japonicus) (UniProt P0DO64); experiment: SDS-PAGE with immunoblot (anti-NO2-Tyr and protein-specific antibodies); recombinant protein (20 μM in the methods, 5–10 μM in the legend) incubated with 500 μM SIN-1 (peroxynitrite generator) for 2 h at 30 °C in 50 mM KPi pH 7.4; 15% SDS-PAGE

## Lotus japonicus phytoglobin LjGlb3-1, recombinant (from UniProt P0DO64 1-168) (natural protein)
[1]
  stoichiometry N: 2
[2]
  stoichiometry N: 2
